Experimental data as given in PMC11719512, “Exploring the Binding Mechanism of ADGRG2 Through Metadynamics and Biochemical Analysis” (International Journal of Molecular Sciences, 2024).
Residue numbers refer to the chain shown, from its start. In names and notes the source's numbering stands.

How the values were obtained:
DOC = assay: BRET-based binding assay; conditions: parent: est. -7.3; read off a plot
ADGRG2 [1] = assay: cAMP accumulation assay (GloSensor) with wild-type ADGRG2 and mutants; format: cell-based; conditions: HEK293, GloSensor; agonist IP15 alone, then with antagonist; mean ± SEM, n = 3
Protocol: To assess the cAMP accumulation induced by receptor activation, HEK293 cells were transfected with plasmids for wild-type ADGRG2 or its mutants (ADGRG2-T624A, ADGRG2-C628A, ADGRG2-N668A, ADGRG2-Y758A, ADGRG2-K760A, ADGRG2-D768A, ADGRG2-N773A, ADGRG2-N775A, ADGRG2-N849A, ADGRG2-N860A) alongside the GloSensor plasmid or an empty vector (pcDNA3.1). Following a 24-h incubation at 37 °C with 5% CO2, the transfected cells were plated at a density of 4 × 10^4 per well in 96-well plates and incubated for an additional 24 h. The cells were then pre-treated with serum-free medium containing 5% (v/v) GloSensor cAMP reagent stock solution for 2 h. cAMP signals induced by IP15 were measured immediately after adding the agonists. Luminescence was recorded for at least 20 min per well, and the data were analyzed using sigmoidal dose–response functions in GraphPad Prism v.9.0.

ADGRG2 [2] = conditions: cited from earlier work; for activity on ADGRG2 (agonist or antagonist): steroid hormones, endogenous, ref [23]
Description: Stachel (sequence: TSFGILLDLSRTSLP, with individual residues numbered from ss01 to ss15, where “ss” denotes Stachel sequence) is a key functional element of ADGRG2, playing a critical role in regulating the conformation and function of the receptor [8]. The Stachel sequence plays a pivotal role in receptor activation by mediating ligand binding and initiating the conformational changes required for signal transduction, highlighting its biological significance. In previous studies, the wild-type ADGRG2 Stachel sequence-derived peptidic agonist, VPM, was found t ... || Figure 1 Structural and binding analysis of ADGRG2 with agonists and antagonists. (A) Structure of ADGRG2, highlighting key domains involved in ligand binding. Identified agonists (DHEA, DHEAS, IP15) and antagonists (DOC, F601D, F601E) are labeled. […] (B) Schematic representation of metadynamics simulations and ligand binding assay conducted to investigate the binding mechanisms of antagonists F601D, F601E, and DOC to ADGRG2. (C) Structural representation of ADGRG2 in complex wi ...

[3] = tested on: ADGRG2 (Nluc-ADGRG2 and its alanine mutants); assay: FlAsh-BRET / BRET-based ligand binding assay with ADGRG2 mutants; conditions: HEK293, competition with 50 μM IP15–FITC, 10^−9 to 10^−4 M competitor, HBSS, 40 min at 37 °C; mean ± SEM, n = 3
Protocol: HEK293 cells were transiently transfected with plasmids for Nluc-ADGRG2 and its various mutants (ADGRG2-T624A, ADGRG2-C628A, ADGRG2-N668A, ADGRG2-Y758A, ADGRG2-K760A, ADGRG2-D768A, ADGRG2-N773A, ADGRG2-N775A, ADGRG2-N849A, ADGRG2-N860A). The cells were plated at a density of 3 × 10^4 per well in a black 96-well plate and cultured for 48 h at 37 °C with 5% CO2. To assess saturation binding, increasing concentrations of FITC-labeled IP15 (IP15–FITC) were added, alongside or without 300 μM of unlabeled IP15, for a 40-min incubation at 37 °C. For competitive binding assays, cells were treated with 50 μM IP15–FITC and varying concentrations (10^−9 to 10^−4 M) of competing peptides in HBSS buffer (containing 25 mM HEPES, 10 mM glucose, 146 mM NaCl, 5 mM KCl, 1 mM MgSO4, 2 mM sodium pyruvate, and 1.3 mM CaCl2) for 40 min at 37 °C. Coelenterazine H (final concentration of 5 μM, Promega) was added just before measuring BRET signals using a Mithras LB 940 Multimode Microplate Reader. Light emissions were recorded at 460 nm (80 nm bandpass) and 535 nm (60 nm bandpass) for IP15–FITC, and the raw BRET ratio was calculated as the 535 nm emission divided by the 460 nm emission.

VPM-F601E, Q8CJ12 = biological target: T1, VPM-F601E, Q8CJ12; assay: BRET-based binding assay; conditions: chain shown with the change;, read off a plot
T1 chain: TSEGILLDLSRTSLP

VPM-F601D, Q8CJ12 = biological target: T2, VPM-F601D, Q8CJ12; assay: BRET-based binding assay; conditions: chain shown with the change;; parent: est. -8.0; read off a plot
T2 chain: TSDGILLDLSRTSLP

With “Nluc-ADGRG2 (wild type) (from UniProt Q8CJ12) K760A” the IC50 (DOC) was -5.6 log10(M).

In the case of IS 4PH GILLDLSRTSLP [IP15], the “IP15-induced cAMP accumulation, effect of ADGRG2 mutations” value (ADGRG2 [1]) is listed as “the effects of these mutations are specific to the antagonists and not due to disruption of interactions between receptor residues that contribute to agonist-induced activation” and the “agonistic activity / receptor state stabilised” value (ADGRG2 [2]; Stachel-derived peptides, earlier work, ref [8],[11]) is listed as “superior agonistic activity”.

In the case of `C[C@]12CC[C@H](OS(=O)(=O)O)CC1=CC[C@@H]1[C@@H]2CC[C@]2(C)C(=O)CC[C@@H]12` [DHEAS], the “activity on ADGRG2 (agonist or antagonist)” value (“activity on ADGRG2” for short) (ADGRG2 [2]) is listed as “endogenous agonists”.

For “Nluc-ADGRG2 (wild type) (from UniProt Q8CJ12) D768A”, the IC50 (DOC) was -5.9 log10(M).

In the case of `C[C@]12CC[C@H](O)CC1=CC[C@@H]1[C@@H]2CC[C@]2(C)C(=O)CC[C@@H]12` [DHEA, dehydroepiandrosterone], the “activity on ADGRG2” value (ADGRG2 [2]) is given as “endogenous agonists”.

In the case of deoxycorticosterone [DOC], the “binding to ADGRG2 with mutated polar residues (C628, N668, K760, D768, N860)” value [3] is listed as “significantly weakened DOC’s ability to bind to ADGRG2” and the “activity on ADGRG2” value (ADGRG2 [2]) is listed as “endogenous antagonist”.

B1: Nluc-ADGRG2 (wild type), Q8CJ12 Y758A (protein)
chain: LKENGNSSLLSPSAESSLVSLIPYSNGTPDAASEVLSTLNKTEKSKITIVKTFNASGVKSQRNICNLSSLCNDSVFFRGEIVFQHDEDHNVTQNQDTANGTFAGVLSLSELKRSELNKTLQTLSETYFIVCATAEAQSTVNCTFTVKLNETMNVCAMMVTFQTVQIRPMEQCCCSPRTPCPSSPEELEKLQCELQDPIVCLADQPHGPPLSSSSKPVVPQATIISHVASDFSLAEPLDHALMTPSTPSLTQESNLPSPQPTIPLASSPATDLPVQSVVVSSLPQTDLSHTLSPVQSSIPSPTTPAPSVPTELVTISTPPGETVVNTSTVSDLEAQVSQMEKALSLGSLEPNLAGEMVNRVSKLLHSPPALLAPLAQRLLKVVDAIGLQLNFSSTTISLTSPSLALAVIRVNASNFNTTTFAAQDPTNLQVSLETPPPENSIGAITLPSSLMNNLPANDVELASRIQFNFFETPALFQDPSLENLTLISYVISSSVTNMTIKNLTRNVTVALKHINPSPDDLTVKCVFWDLGRNGGKGGWSSDGCSVKDKRMNETICTCSHLTSFGILLDLSRTSLPPSQMMALTFITYIGCGLSSIFLSVTLVTYIAFEKIRRDYPSKILIQLCAALLLLNLIFLLDSWIALYNTRGFCIAVAVFLHYFLLVSFTWMGLEAFHMYLALVKVFNTYIRKYILKFCIVGWGIPAVVVSIVLTISPDNYGIGSAGKFPNGTPDDFCWINSNVVFYITVVGYFCVIFLLNVSMFIVVLVQLCRIKKKKQLGAQRKTSIQDLRSIAGLTFLLGITWGFAFFAWGPVNVTFMYLFAIFNTLQGFFIFIFYCAAKENVRKQWRRYLCCGKL
For B1, the IC50 (VPM-F601E, Q8CJ12; parent: est. -8.5) was -7.1 log10(M).

B2: Nluc-ADGRG2 (wild type), Q8CJ12 K760A (protein)
chain: B1 chain with A721Y, K723A
In the case of B2, the IC50 (VPM-F601D, Q8CJ12) is reported as -7.7 log10(M) and the IC50 (VPM-F601E, Q8CJ12; parent: est. -8.5) is reported as -7 log10(M).

B3: Nluc-ADGRG2 (wild type), Q8CJ12 N775A (protein)
chain: B1 chain with A721Y, N738A
For B3, the IC50 (VPM-F601D, Q8CJ12) was -7.6 log10(M) and the IC50 (VPM-F601E, Q8CJ12; parent: est. -8.1) was -5.4 log10(M).

B4: Nluc-ADGRG2 (wild type), Q8CJ12 N849A (protein)
chain: B1 chain with A721Y, N812A
With B4 the IC50 (VPM-F601D, Q8CJ12) was -7.9 log10(M).

B5: Nluc-ADGRG2 (wild type), Q8CJ12 N773A (protein)
chain: B1 chain with A721Y, N736A
With B5 the IC50 (VPM-F601D, Q8CJ12) was -6.2 log10(M).
